From doi:10.1101/2023.10.16.562645 (bioRxiv, 2023)

Molecular target: the molecule itself
Test: SEC

B1: Bacillus subtilis YsiA (natural protein, B. subtilis, UniProt P94548 1-194, looked up)
chain: MKQKRPKYMQIIDAAVEVIAENGYHQSQVSKIAKQAGVADGTIYLYFKNKEDILISLFKEKMGQFIERMEEDIKEKATAKEKLALVISKHFSLLAGDHNLAIVTQLELRQSNLELRQKINEILKGYLNILDGILTEGIQSGEIKEGLDVRLARQMIFGTIDETVTTWVMNDQKYDLVALSNSVLELLVSGIHNK
stoichiometry N: 2
